For 9 molecules, relative binding results are on record in patent publication US20200199241A1 (Chugai, published 2020).

Common to all, as to assay: SPR (Biacore), binding amount relative to IL6R-BF648/IL6R-L = 100
The target of test [1] is T1, human FcγRIa (human, UniProt P12314 16-292, limits assumed).
T1 construct: also called CD64

In test [2] the target is T2, human FcγRIIa type R (human, UniProt P12318 36-217).
T2 construct: also called FcγRIIaR; FcγRIIa(R)
T2 chain: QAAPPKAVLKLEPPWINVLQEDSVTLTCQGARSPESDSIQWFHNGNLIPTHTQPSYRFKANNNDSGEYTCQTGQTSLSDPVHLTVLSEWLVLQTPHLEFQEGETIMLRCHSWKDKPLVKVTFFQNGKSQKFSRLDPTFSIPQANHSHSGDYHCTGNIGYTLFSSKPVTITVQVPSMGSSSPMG

The target in test [3] is T3, human FcγRIIa type H (human, UniProt P12318 36-217).
T3 construct: also called FcγRIIaH; FcγRIIa(H)
T3 sequence: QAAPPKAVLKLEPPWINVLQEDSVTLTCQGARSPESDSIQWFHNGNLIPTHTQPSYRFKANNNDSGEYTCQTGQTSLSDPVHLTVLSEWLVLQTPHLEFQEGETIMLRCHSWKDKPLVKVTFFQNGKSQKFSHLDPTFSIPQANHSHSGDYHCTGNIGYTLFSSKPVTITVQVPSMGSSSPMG

In test [4] the target is T4, human FcγRIIb (human, UniProt P31994 43-217, limits assumed).
T4 construct: also called FcγIIB
T4 sequence: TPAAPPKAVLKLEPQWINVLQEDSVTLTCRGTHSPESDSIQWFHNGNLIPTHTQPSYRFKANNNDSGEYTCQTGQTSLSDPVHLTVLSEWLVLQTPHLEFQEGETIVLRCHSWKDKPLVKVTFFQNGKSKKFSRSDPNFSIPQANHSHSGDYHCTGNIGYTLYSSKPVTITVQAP

Test [5] deals with T5, human FcγRIIIa type V (human, UniProt P08637 17-208, limits assumed).
T5 construct: also called FcγRIIIaV; FcγRIIIa(V)
T5 sequence (P08637 other isoform, or with tags, fused parts or gaps limits assumed): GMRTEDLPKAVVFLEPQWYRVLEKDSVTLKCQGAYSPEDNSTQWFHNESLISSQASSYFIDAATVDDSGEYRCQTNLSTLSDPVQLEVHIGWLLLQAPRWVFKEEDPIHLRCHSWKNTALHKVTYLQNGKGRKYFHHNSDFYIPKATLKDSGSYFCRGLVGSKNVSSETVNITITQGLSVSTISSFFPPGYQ

T1 sequence (P12314 16-292 limits assumed): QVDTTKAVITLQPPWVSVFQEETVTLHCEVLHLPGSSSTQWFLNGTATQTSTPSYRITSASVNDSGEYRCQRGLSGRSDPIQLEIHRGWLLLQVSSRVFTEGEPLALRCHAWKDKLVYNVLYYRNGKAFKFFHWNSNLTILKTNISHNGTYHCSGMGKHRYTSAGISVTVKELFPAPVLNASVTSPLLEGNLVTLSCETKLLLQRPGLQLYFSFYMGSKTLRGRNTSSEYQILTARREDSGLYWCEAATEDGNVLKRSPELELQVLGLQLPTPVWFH

B1: IL6R-BF648/IL6R-L (antibody, human IgG1)
heavy: not shown
light: DIQMTQSPSSLSASVGDRVTITCRASQDISSYLNWYQQKPGKAPKLLIYYTSRLHSGVPSRFSGSGSGTDFTFTISSLQPEDIATYYCQQGNTLPYTFGQGTKVEIK
notes: IL6R-B3 with P238D; also called P238D
On to B1, for which the relative binding in test [1], in test [2], in test [3], in test [4] and in test [5] was 100 in each case.

B2: IL6R-B3/IL6R-L (antibody, human IgG1)
heavy: not shown
light: DIQMTQSPSSLSASVGDRVTITCRASQDISSYLNWYQQKPGKAPKLLIYYTSRLHSGVPSRFSGSGSGTDFTFTISSLQPEDIATYYCQQGNTLPYTFGQGTKVEIK
notes: IL6R-G1d with K439E (EU numbering)
Take B2: the relative binding in test [1] was determined as 145; in test [2], 625; in test [3], 1600; in test [4] it was 58; in test [5], 3260.

B3: IL6R-2B128/IL6R-L (antibody, human IgG1)
heavy: QVQLQESGPGLVKPSETLSLTCAVSGHSISHDHAWSWVRQPPGEGLEWIGFISYSGITNYNPSLQGRVTISRDNSKNTLYLQMNSLRAEDTAVYYCARSLARTTAMDYWGEGTLVTVSSASTKGPSVFPLAPSSKSTSGGTAALGCLVKDYFPEPVTVSWNSGALTSGVHTFPAVLQSSGLYSLSSVVTVPSSSLGTQTYICNVNHKPSNTKVDKKVEPKSCDKTHTCPPCPAPELLGGDSVFLFPPKPKDTLMISRTPEVTCVVVDVSHEDPEVKFNWYVDGVEVHNAKTKPREEQDNSTYRVVSVLTVLHQDWLNGKEYKCKVSNKALPAPIEKTISKAKGQPREPQVYTLPPSRDELTKNQVSLTCLVKGFYPSDIAVEWESNGQPENNYKTTPPVLDSDGSFFLYSKLTVDKSRWQQGNVFSCSVMHEALHNHYTQESLSLSP
light: DIQMTQSPSSLSASVGDRVTITCRASQDISSYLNWYQQKPGKAPKLLIYYTSRLHSGVPSRFSGSGSGTDFTFTISSLQPEDIATYYCQQGNTLPYTFGQGTKVEIK
notes: Alteration introduced into IL6R-B3; also called P238D/Y296D
In the case of B3, the relative binding in test [1] worked out at 95; in test [2], 87; in test [3], 37; in test [4], 103; in test [5], 96.

B4: IL6R-2B172/IL6R-L (antibody, human IgG1)
heavy: QVQLQESGPGLVKPSETLSLTCAVSGHSISHDHAWSWVRQPPGEGLEWIGFISYSGITNYNPSLQGRVTISRDNSKNTLYLQMNSLRAEDTAVYYCARSLARTTAMDYWGEGTLVTVSSASTKGPSVFPLAPSSKSTSGGTAALGCLVKDYFPEPVTVSWNSGALTSGVHTFPAVLQSSGLYSLSSVVTVPSSSLGTQTYICNVNHKPSNTKVDKKVEPKSCDKTHTCPPCPAPELLGGDSVFLFPPKPKDTLMISRTPEVTCVVVDVSHEDPEVKFNWYVDGVEVHNAKTKPREEQYNSTYRVVSVLTVLHQDWLNGKEYKCKMSNKALPAPIEKTISKAKGQPREPQVYTLPPSRDELTKNQVSLTCLVKGFYPSDIAVEWESNGQPENNYKTTPPVLDSDGSFFLYSKLTVDKSRWQQGNVFSCSVMHEALHNHYTQESLSLSP
light: DIQMTQSPSSLSASVGDRVTITCRASQDISSYLNWYQQKPGKAPKLLIYYTSRLHSGVPSRFSGSGSGTDFTFTISSLQPEDIATYYCQQGNTLPYTFGQGTKVEIK
notes: Alteration introduced into IL6R-B3; also called P238D/V323M
B4: the relative binding is 140 in test [1]; 244 in test [2]; 179 in test [3]; 132 in test [4]; 144 in test [5].

B5: IL6R-BP107/IL6R-L (antibody, human IgG1)
heavy: QVQLQESGPGLVKPSETLSLTCAVSGHSISHDHAWSWVRQPPGEGLEWIGFISYSGITNYNPSLQGRVTISRDNSKNTLYLQMNSLRAEDTAVYYCARSLARTTAMDYWGEGTLVTVSSASTKGPSVFPLAPSSKSTSGGTAALGCLVKDYFPEPVTVSWNSGALTSGVHTFPAVLQSSGLYSLSSVVTVPSSSLGTQTYICNVNHKPSNTKVDKKVEPKSCDKTHTCPPCPAPELLGGDSVFLFPPKPKDTLMISRTPEVTCVVVDVSEEDPEVKFNWYVDGVEVHNAKTKPREEQYNSTYRVVSVLTVLHQDWLNGKEYKCKVSNKALPAPIEKTISKAKGQPREPQVYTLPPSRDELTKNQVSLTCLVKGFYPSDIAVEWESNGQPENNYKTTPPVLDSDGSFFLYSKLTVDKSRWQQGNVFSCSVMHEALHNHYTQESLSLSP
light: DIQMTQSPSSLSASVGDRVTITCRASQDISSYLNWYQQKPGKAPKLLIYYTSRLHSGVPSRFSGSGSGTDFTFTISSLQPEDIATYYCQQGNTLPYTFGQGTKVEIK
notes: Alteration introduced into IL6R-B3; also called P238D/H268E
Take B5: the relative binding came to 123 in test [1], 147 in test [2], 118 in test [4] and 129 in test [5].

B6: IL6R-BP078/IL6R-L (antibody, human IgG1)
heavy: QVQLQESGPGLVKPSETLSLTCAVSGHSISHDHAWSWVRQPPGEGLEWIGFISYSGITNYNPSLQGRVTISRDNSKNTLYLQMNSLRAEDTAVYYCARSLARTTAMDYWGEGTLVTVSSASTKGPSVFPLAPSSKSTSGGTAALGCLVKDYFPEPVTVSWNSGALTSGVHTFPAVLQSSGLYSLSSVVTVPSSSLGTQTYICNVNHKPSNTKVDKKVEPKSCDKTHTCPPCPAPELLGGDSVFLFPPKPKDTLMISRTPEVTCVVVDVSHEDPEVKFNWYVDGVEVHNAKTKPREEQYNSTYRVVSVLTVLHQDWLNGKEYKCKVSNKALPMPIEKTISKAKGQPREPQVYTLPPSRDELTKNQVSLTCLVKGFYPSDIAVEWESNGQPENNYKTTPPVLDSDGSFFLYSKLTVDKSRWQQGNVFSCSVMHEALHNHYTQESLSLSP
light: DIQMTQSPSSLSASVGDRVTITCRASQDISSYLNWYQQKPGKAPKLLIYYTSRLHSGVPSRFSGSGSGTDFTFTISSLQPEDIATYYCQQGNTLPYTFGQGTKVEIK
notes: Alteration introduced into IL6R-B3; also called P238D/A330M
Regarding B6, the relative binding was determined as 101 in test [2], 89 in test [3] and 91 in test [5].

B7: IL6R-2B169/IL6R-L (antibody, human IgG1)
heavy: QVQLQESGPGLVKPSETLSLTCAVSGHSISHDHAWSWVRQPPGEGLEWIGFISYSGITNYNPSLQGRVTISRDNSKNTLYLQMNSLRAEDTAVYYCARSLARTTAMDYWGEGTLVTVSSASTKGPSVFPLAPSSKSTSGGTAALGCLVKDYFPEPVTVSWNSGALTSGVHTFPAVLQSSGLYSLSSVVTVPSSSLGTQTYICNVNHKPSNTKVDKKVEPKSCDKTHTCPPCPAPELLGGDSVFLFPPKPKDTLMISRTPEVTCVVVDVSHEDPEVKFNWYVDGVEVHNAKTKPREEQYNSTYRVVSVLTVLHQDWLNGKEYKCKISNKALPAPIEKTISKAKGQPREPQVYTLPPSRDELTKNQVSLTCLVKGFYPSDIAVEWESNGQPENNYKTTPPVLDSDGSFFLYSKLTVDKSRWQQGNVFSCSVMHEALHNHYTQESLSLSP
light: DIQMTQSPSSLSASVGDRVTITCRASQDISSYLNWYQQKPGKAPKLLIYYTSRLHSGVPSRFSGSGSGTDFTFTISSLQPEDIATYYCQQGNTLPYTFGQGTKVEIK
notes: Alteration introduced into IL6R-B3; also called P238D/V323I; 1L6R-2B169/IL6R-L
As for B7, the relative binding in test [1] turned out to be 73; in test [3], 83; in test [4] it was 104; in test [5], 94.

B8: IL6R-2B171/IL6R-L (antibody, human IgG1)
heavy: QVQLQESGPGLVKPSETLSLTCAVSGHSISHDHAWSWVRQPPGEGLEWIGFISYSGITNYNPSLQGRVTISRDNSKNTLYLQMNSLRAEDTAVYYCARSLARTTAMDYWGEGTLVTVSSASTKGPSVFPLAPSSKSTSGGTAALGCLVKDYFPEPVTVSWNSGALTSGVHTFPAVLQSSGLYSLSSVVTVPSSSLGTQTYICNVNHKPSNTKVDKKVEPKSCDKTHTCPPCPAPELLGGDSVFLFPPKPKDTLMISRTPEVTCVVVDVSHEDPEVKFNWYVDGVEVHNAKTKPREEQYNSTYRVVSVLTVLHQDWLNGKEYKCKLSNKALPAPIEKTISKAKGQPREPQVYTLPPSRDELTKNQVSLTCLVKGFYPSDIAVEWESNGQPENNYKTTPPVLDSDGSFFLYSKLTVDKSRWQQGNVFSCSVMHEALHNHYTQESLSLSP
light: DIQMTQSPSSLSASVGDRVTITCRASQDISSYLNWYQQKPGKAPKLLIYYTSRLHSGVPSRFSGSGSGTDFTFTISSLQPEDIATYYCQQGNTLPYTFGQGTKVEIK
notes: Alteration introduced into IL6R-B3; also called P238D/V323L
With B8, the relative binding in test [1] was determined as 116; in test [2], 117; in test [3], 115; in test [4], 113; in test [5], 122.

B9: IL6R-2B002/IL6R-L (antibody, human IgG1)
heavy: QVQLQESGPGLVKPSETLSLTCAVSGHSISHDHAWSWVRQPPGEGLEWIGFISYSGITNYNPSLQGRVTISRDNSKNTLYLQMNSLRAEDTAVYYCARSLARTTAMDYWGEGTLVTVSSASTKGPSVFPLAPSSKSTSGGTAALGCLVKDYFPEPVTVSWNSGALTSGVHTFPAVLQSSGLYSLSSVVTVPSSSLGTQTYICNVNHKPSNTKVDKKVEPKSCDKTHTCPPCPAPDLLGGDSVFLFPPKPKDTLMISRTPEVTCVVVDVSHEDPEVKFNWYVDGVEVHNAKTKPREEQYNSTYRVVSVLTVLHQDWLNGKEYKCKVSNKALPAPIEKTISKAKGQPREPQVYTLPPSRDELTKNQVSLTCLVKGFYPSDIAVEWESNGQPENNYKTTPPVLDSDGSFFLYSKLTVDKSRWQQGNVFSCSVMHEALHNHYTQESLSLSP
light: DIQMTQSPSSLSASVGDRVTITCRASQDISSYLNWYQQKPGKAPKLLIYYTSRLHSGVPSRFSGSGSGTDFTFTISSLQPEDIATYYCQQGNTLPYTFGQGTKVEIK
notes: Alteration introduced into IL6R-B3; also called P238D/E233D
B9: the relative binding in test [1] was determined as 118; in test [2] it was 103; in test [3] it was 147; in test [5], 147.
